# Experimental data published in publication PMC5702047.
# Target: TRC40 (rabbit (endogenous in reticulocyte lysate))
substance,measurement,value
cytosolic domain of the WRB receptor (WRBcc) (domain or fragment),"reduction of the integration of Sec61βOPG2 and RAMP4OPG into RMs (N-glycosylation) in vitro, post-translational, with an excess of WRBcc",50%
